The values that follow come from article doi:10.1101/2023.01.25.525455 (bioRxiv, 2023).

The target in one assay is purified VPS29 (human, UniProt Q9UBQ0 1-182). Nature of the assay: ITC.
Another assay concerns the target recombinant DENND10 (human, UniProt Q8TCE6 1-357). The assay is described as follows: ITC.

Values joined by “and” are separate entries in the source; they are usually repeats but may differ in a detail not shown here. Identical values can stand only once.

Chain of recombinant DENND10 (Q8TCE6 whole entry): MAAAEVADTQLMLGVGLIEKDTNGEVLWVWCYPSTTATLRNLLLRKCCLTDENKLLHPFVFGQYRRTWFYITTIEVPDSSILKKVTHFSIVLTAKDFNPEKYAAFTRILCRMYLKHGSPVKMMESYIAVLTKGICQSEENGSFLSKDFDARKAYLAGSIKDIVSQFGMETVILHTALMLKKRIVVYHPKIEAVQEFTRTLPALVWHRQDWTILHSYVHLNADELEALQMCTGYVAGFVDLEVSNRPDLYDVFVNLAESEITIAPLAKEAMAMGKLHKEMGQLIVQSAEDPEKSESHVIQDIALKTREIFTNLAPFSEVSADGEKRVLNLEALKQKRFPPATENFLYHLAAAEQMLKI

For orientation: Kd means the concentration at which binding is half-saturated. As for EFASCRLEAVPLEFGDYHPLKPI [synthetic VPS35L peptide (residues Glu16-Ile38)], the Kd in the assay with purified VPS29 is 1800 nM and 1870 nM.

B1: CCDC22-CCDC93 CC1-CC2 complex (CCDC22(325-485) + CCDC93(310-488)), wild type (complex)
chain 1: VTWAAQEQELESLREQLEGVNRSIEEVEADMKTLGVSFVQAESECRHSKLSTAEREQALRLKSRAVELLPDGTANLAKLQLVVENSAQRVIHLAGQWEKHRVPLLAEYRHLRKLQDCRELESSRRLAEIQELHQSVRAAAEEARRKEEVYKQLMSELETLP
chain 2: GTSQLHRRKVISLNKQIAQKTKHLEELRASHTSLQARYNEAKKTLTELKTYSEKLDKEQAALEKIESKADPSILQNLRALVAMNENLKSQEQEFKAHCREEMTRLQQEIENLKAERAPRGDEKTLSSGEPPGTLTSAMTHDEDLDRRYNMEKEKLYKIRLLQARRNREIAILHRKIDEV
On to B1, for which the dissociation constant (Kd) in the assay with recombinant DENND10 was 28 ± 6 nM. EFGDYHPLKP [VPS35L^28-37 peptide] yielded a dissociation constant Kd with purified VPS29 of 6800 nM.
